Laboratory results from patent publication US20240238459.

T1: substrate sequence FVQWFSKFLGK (SEQ ID NO:3)
T1 sequence: FVQWFSKFLGK


System: T1, substrate sequence FVQWFSKFLGK (SEQ ID NO:3)

Protein | protease specificity (cleavage activity; enzyme 5 nM, substrate 60 µM)
C1S (enzyme, UniProt P09871 16-688, looked up, species assumed) Complement C1s subcomponent: EPTMYGEILSPNYPQAYPSEVEKSWDIEVPEGYGIHLYFTHLDIELSENCAYDSVQIISGDTEEGRLCGQRSSNNPHSPIVEEFQVPYNKLQVIFKSDFSNEERFTGFAAYYVATDINECTDFVDVPCSHFCNNFIGGYFCSCPPEYFLHDDMKNCGVNCSGDVFTALIGEIASPNYPKPYPENSRCEYQIRLEKGFQVVVTLRREDFDVEAADSAGNCLDSLVFVAGDRQFGPYCGHGFPGPLNIETKSNALDIIFQTDLTGQKKGWKLRYHGDPMPCPKEDTPNSVWEPAKAKYVFRDVVQITCLDGFEVVEGRVGATSFYSTCQSNGKWSNSKLKCQPVDCGIPESIENGKVEDPESTLFGSVIRYTCEEPYYYMENGGGGEYHCAGNGSWVNEVLGPELPKCVPVCGVPREPFEEKQRIIGGSDADIKNFPWQVFFDNPWAGGALINEYWVLTAAHVVEGNREPTMYVGSTSVQTSRLAKSKMLTPEHVFIHPGWKLLEVPEGRTNFDNDIALVRLKDPVKMGPTVSPICLPGTSSDYNLMDGDLGLISGWGRTEKRDRAVRLKAARLPVAPLRKCKEVKVEKPTADAEAYVFTPNMICAGGEKGMDSCKGDSGGAFAVQDPNDKTKFYAAGLVSWGPQCGTYGLYTRVKNYVDWIMKTMQENSTPRED | the substrate sequence is highly specific for granzyme B compared to the other proteases tested
granzyme K (enzyme, UniProt P49863 27-264, looked up, species assumed) Granzyme K: IIGGKEVSPHSRPFMASIQYGGHHVCGGVLIDPQWVLTAAHCQYRFTKGQSPTVVLGAHSLSKNEASKQTLEIKKFIPFSRVTSDPQSNDIMLVKLQTAAKLNKHVKMLHIRSKTSLRSGTKCKVTGWGATDPDSLRPSDTLREVTVTVLSRKLCNSQSYYNGDPFITKDMVCAGDAKGQKDSCKGDSGGPLICKGVFHAIVSGGHECGVATKPGIYTLLTKKYQTWIKSNLVPPHTN | the substrate sequence is highly specific for granzyme B compared to the other proteases tested
